Experimental data taken from patent publication US20230181756A1, “CCR7 ANTIBODY DRUG CONJUGATES FOR TREATING CANCER” (Novartis AG, priority 2020, published 2023).

T1: human CCR7 (NIH3T3.hCCR7 cells) (Homo sapiens, UniProt P32248)
T1 construct: Full length human, cyno and mouse CCR7 genes were synthesized; expressed in transfected cells; host or cells: NIH/3T3 (retroviral transduction)
T1 sequence (P32248 25-378): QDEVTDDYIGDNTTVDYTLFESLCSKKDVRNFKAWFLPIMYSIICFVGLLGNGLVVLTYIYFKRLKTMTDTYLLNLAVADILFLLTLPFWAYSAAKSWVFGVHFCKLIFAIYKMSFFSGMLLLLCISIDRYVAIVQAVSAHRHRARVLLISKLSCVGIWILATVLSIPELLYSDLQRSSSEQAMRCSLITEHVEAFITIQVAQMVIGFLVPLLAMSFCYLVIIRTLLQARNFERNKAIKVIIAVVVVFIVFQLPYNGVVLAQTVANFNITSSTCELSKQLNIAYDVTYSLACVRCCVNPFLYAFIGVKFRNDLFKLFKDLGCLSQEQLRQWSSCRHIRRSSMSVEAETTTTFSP

B1: 121G12 humanized CysMab: humanized anti-CCR7 antibody 121G12, CysMab, Fc wild type (antibody, V domains shown)
VH: EVQLVESGGGLVKPGGSLRLSCAASGFTFSTYAMSWVRQAPGKGLEWVATISDAGSYSYYPDNVKGRFTISRDNAKNSLYLQMNSLRAEDTAVYYCARRGSRYEEYYVMDYWGQGTTVTVSS
VL: EIVLTQSPATLSVSPGERVTLSCRASQSISNNLHWYQQKPGQAPRLLIKYASQSISGIPARFSGSGSGTDFTLTISSVEPEDFGVYFCQQSSSWLTFGQGTKLEIK
B2: 674J13.CysMab.DAPA.AURIX2 (conjugate)
heavy: DVQLQESGPGLVKPSQTLSLTCTVSGYSITSGYSWHWIRQHPGKGLEWMAHIHSSGSTNYNPSLKSRITISRDTSKNQFSLKLSSVTAADTAVYYCARGGVQAFAYWGQGTLVTVSSASTKGPSVFPLAPSSKSTSGGTAALGCLVKDYFPCPVTVSWNSGALTSGVHTFPAVLQSSGLYSLSSVVTVPSSSLGTQTYICNVNHKPSNTKVDKRVEPKSCDKTHTCPPCPAPELLGGPSVFLFPPKPKDTLMISRTPEVTCVVVAVSHEDPEVKFNWYVDGVEVHNAKTKPREEQYNSTYRVVSVLTVLHQDWLNGKEYKCKVSNKALAAPIEKTISKAKGQPREPQVYTLPPSREEMTKNQVSLTCLVKGFYPCDIAVEWESNGQPENNYKTTPPVLDSDGSFFLYSKLTVDKSRWQQGNVFSCSVMHEALHNHYTQKSLSLSPGK
light: EIVLTQSPATLSASPGERVTMSCSASSSVIYMHWYQQKPGQAPRRWIYDTSKLASGVPARFSGSGSGTDYTLTISSMEPEDAAVYYCQQWSSNPLTFGQGTKLEIKRTVAAPSVFIFPPSDEQLKSGTASVVCLLNNFYPREAKVQWKVDNALQSGNSQESVTEQDSKDSTYSLSSTLTLSKADYEKHKVYACEVTHQGLSSPVTKSFNRGEC

Assays:
[1] = test system: CCR7 and CD20 expressing JVM2 cells; assay: surrogate ADCC reporter assay (Jurkat-V158 effector cells); type: cell-based; details: JVM2 target cells and Jurkat-V158 effector cells
Description: Capacity of candidate antibodies to mediate ADCC was assessed using a surrogate ADCC reporter assay. CCR7 and CD20 expressing JVM2 cells were used as target cells. JVM2 cells were washed and re-suspended at 8×10^4 cells/ml cells/ml. Effector cells in this assay were a Jurkat cell line stably expressing CD16V158 and an NFAT dependent luciferase reporter (Jurkat-V158); expression of luciferase is a surrogate for canonical ADCC signaling through CD16. Briefly, Jurkat-V158 cells grown in suspension were spun down to remove spent media, the pellet was resuspended in assay media and adjusted to 1.6×10^6 cells/ml cells/mL. Mix equal volumes of effector and target cells to make a master mix of cells yielding a target to effector cell ratio of 1:5 or 1:20. A titration of antibody was diluted in assay media with a final top concentration of 50 ug/mL in the assay well. 12.5 uL of Ab solution was added to a 384 well round bottom plate and then 12.5 ul of the master cell mix was added. Antibody and cells were mixed well by pipetting and incubated for 4 hours at 37° C. in 5% CO2. Following incubation, 15 uL of Bright Glo substrate (Promega #G7572) was added to each well and shaken for 5 min at RT at 1050 rpm. Luminescent signal was read on the Envision plate reader (Perkin Elmer). […]

[2] = test system: PF382 cells (CCR7−/CCR9+/CCR6+); assay: FACS binding, selectivity
Description: (§1) The affinity of various antibodies and ADCs to CCR7 and its species orthologues was determined using FACS. Purified IgGs were titrated to determine EC50 values for binding to cell surface expressed CCR7.
(§2) For this purpose, CCR7 positive cells were harvested (adherent cells were detached with Accutase), washed twice with FACS buffer (PBS/3% FCS/0.02% sodium azide) and diluted to approximately 2×10^6 cells/ml in FACS buffer. All subsequent steps were done on ice to prevent internalization of the receptor. 100 μl cell suspension/well were transferred into 96-well U-bottom plates (Falcon). 2×10^5 cells/well were incubated with a serial dilution of antibody concentrations of the anti-CCR7 antibody-of-interest ranging across several logs, starting at a high of 100 nM for 60 minutes at 4° C., gently shaking. […] After a final wash, cells were resuspended in 100 μl of FACS buffer containing 0.2 μg/ml DAPI followed by readout on the flow cytometry machine (BD LSRFortessa Cell Analyzer; Cat #647177). Mean fluorescence intensity (MFI) of live, single cells was calculated in Flowjo 10.0.8 and exported into Graphpad Prism6 for EC50 determination.
(§3) Selectivity was assessed by measuring apparent binding affinities to isogenic cell pairs engineered to overexpress CCR7 as well as cell lines expressing CCR7 paralogs, e.g., CCR9, CCR6, CXCR4 and CCR8.

NIH3T3 cells = assay: FACS binding, selectivity
Description: as §1, §2, §3

CCR8 (CHO-CCR8) = target: T2, CCR8 (CHO-CCR8) (Homo sapiens, UniProt P51685); assay: FACS binding, selectivity (CCR7 paralogs)
T2 construct: expressed in transfected cells; host or cells: CHO
T2 sequence (P51685 whole entry, species assumed): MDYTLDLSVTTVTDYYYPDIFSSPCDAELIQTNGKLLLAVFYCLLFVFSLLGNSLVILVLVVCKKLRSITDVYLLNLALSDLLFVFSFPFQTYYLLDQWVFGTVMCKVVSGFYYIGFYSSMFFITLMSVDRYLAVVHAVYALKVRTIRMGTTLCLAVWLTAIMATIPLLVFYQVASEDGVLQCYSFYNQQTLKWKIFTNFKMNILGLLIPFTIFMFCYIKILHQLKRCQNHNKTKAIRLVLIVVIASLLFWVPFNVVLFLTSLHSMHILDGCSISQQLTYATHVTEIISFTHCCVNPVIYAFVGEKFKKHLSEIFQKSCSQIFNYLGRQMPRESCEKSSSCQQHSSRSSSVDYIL
Description: as §1, §2, §3

CXCR4 (HEK293-CXCR4) = target: T3, CXCR4 (HEK293-CXCR4) (Homo sapiens, UniProt P61073); assay: FACS binding, selectivity (CCR7 paralogs)
T3 construct: expressed in transfected cells; host or cells: HEK293
T3 sequence (P61073 whole entry, species assumed): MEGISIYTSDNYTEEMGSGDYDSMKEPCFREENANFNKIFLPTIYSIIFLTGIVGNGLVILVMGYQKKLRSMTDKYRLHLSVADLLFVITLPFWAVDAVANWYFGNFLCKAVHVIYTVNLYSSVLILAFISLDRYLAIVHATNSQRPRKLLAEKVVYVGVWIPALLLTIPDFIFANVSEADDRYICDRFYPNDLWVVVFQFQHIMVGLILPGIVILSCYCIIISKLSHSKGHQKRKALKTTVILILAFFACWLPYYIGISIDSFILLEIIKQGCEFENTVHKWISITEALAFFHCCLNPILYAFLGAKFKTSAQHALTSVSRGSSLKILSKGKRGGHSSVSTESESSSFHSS
Description: as §1, §2, §3

[3] = target: T1, human CCR7 (NIH3T3.hCCR7 cells); assay: FACS binding to cell surface expressed CCR7
Description: as §1, §2
Selectivity was assessed by measuring apparent binding affinities to isogenic cell pairs engineered to overexpress CCR7 as well as cell lines expressing CCR7 paralogs, e.g., CCR9, CCR6, CXCR4 and CCR8. […]

DEL = assay: ADC cell viability assay (CellTiter-Glo, four days); type: cell-based; details: CCR7 receptor levels ~100,000
Description: (§4) Cytotoxic effects after binding of directly conjugated antibodies (ADCs) with various payloads and their internalization into CCR7(+) cells were studied by assessing cell viability after four days of treatment. Three fold dilutions of the ADCs were added to 384-well bottom white plates in triplicates ([…]). […] Cells were harvested (adherent cells were detached with Accutase) and resuspended to approximately 2×10^4 cells/ml. Cells were added to 384-well plates on top of the antibody (20 μl/well). The plates were incubated for four days at 37° C. and 5% CO2. Subsequently, 20 µl/well of CellTiter-Glo solution (CellTiter-Glo® Luminescent Cell Viability Assay; Promega, #G7571) was prepared and added to the cells. Cell viability was determined by the luminescence signal, which was measured after 10 min of incubation at 22° C. and 400 rpm with the Envision reader. IC50 values were calculated using the Graphpad Prism software.

KE97 = assay: as above; type: cell-based; details: KE97, CCR7 receptor levels ~100,000
Description: as §4

CML-T1 = assay: as above; type: cell-based; details: CML-T1, CCR7 receptor levels ~29,000
Description: as §4
(§5) To assess the ADCs for target-specificity and receptor-level dependency, ADC activity was tested across cell lines with different CCR7 receptor levels. […] Cell lines were chosen based on similar sensitivity to payload.

SR786 = assay: as above; type: cell-based; details: SR786, CCR7 receptor levels ~28,000
Description: as §4, §5

NCI-H82 = assay: as above; type: cell-based; details: NCI-H82 (Small cell lung cancer), CCR7 receptor levels 0
Description: as §4, §5

DND-41 = assay: as above; type: cell-based; details: DND-41 (T cell leukemia), CCR7 receptor levels 1,700
Description: as §4, §5

Row | Molecule | ADCC activity; IC50 (nM) [1] | Apparent FACS binding (at 5 ug/ml) [2] | Apparent FACS binding (at 5 ug/ml) (NIH3T3 cells) | Apparent FACS binding (at 5 ug/ml) (CCR8 (CHO-CCR8)) | Apparent FACS binding (at 5 ug/ml) (CXCR4 (HEK293-CXCR4)) | Apparent FACS binding (at 5 ug/ml) [3] | AMAX, cell viability assay (DEL) [%] | AMAX, cell viability assay (KE97) [%] | AMAX, cell viability assay (CML-T1) [%] | AMAX, cell viability assay (SR786) [%] | ADC activity in cell viability assay; IC50 (nM) (NCI-H82) | AMAX, cell viability assay (DND-41) [% AMAX]
1 | B1 | Yes, but insufficient | No binding | No binding | No binding | No binding | Binding | – | – | – | – | – | –
2 | B2 | – | – | – | – | – | – | > 95 | > 95 | 60 | 90 | No killing | <20
